Test results taken from patent US8119354B2, “Cell-free assay product and method of use thereof for measuring activity of frizzled receptors” (Universitaet Konstanz, priority 2007, dated 2012).
Each block holds one molecule with its values, some of them ahead of it.

Experiments:
hFz1 = target: T1, hFz1 (Homo sapiens, UniProt Q9UP38); experiment: Europium-GTP assay of G protein (Go) activation by hFz1 membranes; type: biochemical; settings: for relative stimulation among the Wnt ligands tested: detergent-solubilized hFz1, GTP incorporation into Go; for activation of the trimeric Go protein (GTP incorporation into Go): detergent-solubilized hFz1-expressing membrane fractions, not control membranes
T1 construct: made in house; host or cells: Escherichia coli (pMAL-p2), membrane fraction
T1 sequence (Q9UP38 70-647): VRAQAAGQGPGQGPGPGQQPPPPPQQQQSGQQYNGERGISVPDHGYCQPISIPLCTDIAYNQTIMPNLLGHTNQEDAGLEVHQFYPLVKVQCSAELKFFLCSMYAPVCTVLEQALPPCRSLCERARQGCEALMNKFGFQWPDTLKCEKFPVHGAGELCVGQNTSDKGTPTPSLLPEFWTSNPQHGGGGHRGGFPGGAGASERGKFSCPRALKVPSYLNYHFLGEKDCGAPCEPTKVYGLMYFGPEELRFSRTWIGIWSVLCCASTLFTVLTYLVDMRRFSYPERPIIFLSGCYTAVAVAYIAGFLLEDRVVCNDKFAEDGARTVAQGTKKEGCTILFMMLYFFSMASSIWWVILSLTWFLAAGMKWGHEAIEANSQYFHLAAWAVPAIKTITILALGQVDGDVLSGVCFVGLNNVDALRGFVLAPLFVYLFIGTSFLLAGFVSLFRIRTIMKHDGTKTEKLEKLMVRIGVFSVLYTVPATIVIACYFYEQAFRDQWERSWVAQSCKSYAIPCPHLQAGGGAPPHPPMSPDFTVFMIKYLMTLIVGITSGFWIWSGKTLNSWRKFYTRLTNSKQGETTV
Protocol: The coding sequence of hFz1 was cloned in-frame into the pMAL-p2 plasmid (New England BioLabs) allowing expression of the protein as an N-terminal fusion with maltose binding protein (MBP). The natural signal sequence of MBP directs the fusion protein through the cytoplasmic membrane. Expression conditions were optimized to allow slow expression to maximize correct hFz1 folding: Expression was performed at 18° C. for 18 h, and in the presence of glucose to minimize the expression of endogenous MBP protein.
Bacteria were harvested by centrifugation, resuspended in PBS (phosphate-buffered saline) and disrupted by French press. The resultant suspension was cleared from the cell debris by low-speed centrifugation, followed by ultracentrifugation to pellet the membranes expressing MBP-hFz1. The membranes were resuspended in PBS supplemented with the protease-inhibitor cocktail (Roche) and frozen in aliquots at −80° C. Control bacteria were transformed with the empty pMAL-p2 vector, induced with IPTG, grown and harvested in parallel with hFz1-transformed bacteria.
HFz1 coding sequence was subcloned into pIRES2-DsRed-Express plasmid (Invitrogen). CHO cells were transiently transfected with lipofectamine following manufacturer's protocol. Transfection efficiency was estimated to be >50%. Two days post-transfection, transfected cells in parallel with control non-transfected cells of a similar cell density were washed, detached with EDTA, pelleted, washed with PBS, and disrupted in a glass-rod homogenizer in a hypotonic buffer (10 mM Hepes pH 7.5). Membrane fraction was prepared and stored as above.
Europium-GTP assay of G protein activation using a time-resolved fluorescence assay was performed. In one well of a 96-well AcroWell plate, 100 μl were mixed containing 4-10 μg/ml membrane protein from the hFz1 expression in bacteria or in CHO, 50 mM Hepes, pH 7.4, 1 mM MgCl2, 50 mM NaCl and 1 mg/ml saponin. Bacterial membranes expressing hFz1 or bacterial control membranes were used at 0.1 mg/ml protein concentration for membrane protein preparation. CHO membranes expressing hFz1 or CHO control membranes were used at 0.01 mg/ml protein concentration. Varying amounts of the following were added: bovine brain Go (Calbiochem), Wnt3a (R&Dsystems), Wnt3a-conditioned or control L-cell medium. Extra GDP was omitted in most experiments. 30 min after incubating this mixture at room temperature on a shaker (100 rpm), Europium-GTP was added, and incubation was continued for 30 more min. Afterwards the content of the wells was filtered and washed using the Multiscreen Vacuum Manifold (Millipore). Amounts of Europium-GTP retained by the membranes were then measured using the Perkin Elmer Victor3 Multilabel Plate Reader.

[1] = Solubility of purified Wnt3A after heparin chromatography; type: physicochemical; settings: 1×PBS, 1M NaCl, 1% CHAPS, pH7.3
Protocol: To purify Wnt protein as an example for a typical Fz ligand LWnt3A or LWnt5A cell lines producing and secreting Wnt proteins were used. By growing the cells adherent for 4 days from a 1:10 to 1:20 split high amounts of Wnt-3A were obtained. The medium was DMEM plus 10% FBS, omitting the serum lowers the levels of Wnt protein in the medium. The Wnt containing medium was filtered, detergent was added (Triton X-100 or CHAPS) to a final concentration of 1%, and the medium was refiltered just before applying the material to Blue Sepharose.
Purification by Blue Sepharose fractionation yielded pure Wnt protein, wherein Wnt3A conditioned medium was applied on a Blue Sepharose HP column. Wnt elution from Blue Sepharose was done in a single step from 150 mM to 1.5 M KCl. Approximately, half of the Wnt protein eluted immediately with the salt and the majority of contaminants, but the other half was retained and eluted later in a second pool. This second pool contained much less total protein and consequently contained a higher proportion of Wnt.
Pooled eluted Wnt fractions from Blue Sepharose purification were concentrated by […] to 5 or 10 ml volume using Centricon or Amicon Ultra 30 ultrafiltration device (Amicon) depending on size of […] column. […]

hFz6 = target: T2, hFz6 (Homo sapiens, UniProt O60353); experiment: in vitro Go activation assay with bacterially expressed hFz6; type: biochemical; settings: detergent-solubilized bacterially expressed hFz6
T2 construct: made in house
Text: (§1) The results obtained with three human Frizzled receptors (hFz1, hFz6, hFz7) and four Wnt ligands (Wnt3a, Wnt5a, Wnt5b, and Wnt7a) allow to compose a table of pair-wise Wnt-Frizzled activations using Go stimulation as the read-out (FIG. 5C).
(§2) Detergent-solubilized hFz6 and Fz7 stimulated GTP incorporation into Go in the presence of different Wnt ligands. Data are presented in FIG. 5C as summary of the capacity of the tested Wnt ligands to stimulate the tested Frizzled receptors to activate Go in vitro. […] Go activation by the Wnt-Frizzled pairs is denoted (in the order of the decreasing activation capacity) as “+++”, “++”, “+”, “+/−”, and “−” using as criteria the lowest Go-activating Wnt concentration as well as the maximal Go activation level achieved by any Wnt concentration.
(§3) Europium-GTP assay of G protein activation using a time-resolved fluorescence assay was performed. In one well of a 96-well AcroWell plate, 100 μl were mixed containing 4-10 μg/ml membrane protein from the hFz1 expression in bacteria or in CHO, 50 mM Hepes, pH 7.4, 1 mM MgCl2, 50 mM NaCl and 1 mg/ml saponin. Bacterial membranes expressing hFz1 or bacterial control membranes were used at 0.1 mg/ml protein concentration for membrane protein preparation. […] Amounts of Europium-GTP retained by the membranes were then measured using the Perkin Elmer Victor3 Multilabel Plate Reader.

hFz7 = target: T3, hFz7 (Homo sapiens, UniProt O75084); experiment: in vitro Go activation assay with bacterially expressed hFz7; type: biochemical; settings: detergent-solubilized bacterially expressed hFz7
T3 construct: made in house
Text: as §1, §2, §3

stimulation of hFz1 activity towards Go (hFz1; E. coli-produced hFZ1 membranes, 0.3 μg/ml purified Wnt3a): stimulated
relative stimulation among the Wnt ligands tested (hFz1): most active
Molecule: Wnt3a
solubility and activity maintained at a maximum concentration [1]: ≤ 100 µg/mL

activation of the trimeric Go protein (GTP incorporation into Go) (hFz1): concentration-dependent activation
relative stimulation among the Wnt ligands tested (hFz1): more modest stimulation
B1: Wnt5b: Wnt ligand (secreted Wnt family protein), frizzled receptor agonist (protein, UniProt Q9H1J7 18-359, looked up)
Protein Wnt-5b: QLLTDANSWWSLALNPVQRPEMFIIGAQPVCSQLPGLSPGQRKLCQLYQEHMAYIGEGAKTGIKECQHQFRQRRWNCSTADNASVFGRVMQIGSRETAFTHAVSAAGVVNAISRACREGELSTCGCSRTARPKDLPRDWLWGGCGDNVEYGYRFAKEFVDAREREKNFAKGSEEQGRVLMNLQNNEAGRRAVYKMADVACKCHGVSGSCSLKTCWLQLAEFRKVGDRLKEKYDSAAAMRVTRKGRLELVNSRFTQPTPEDLVYVDPSPDYCLRNESTGSLGTQGRLCNKTSEGMDGCELMCCGRGYNQFKSVQVERCHCKFHWCCFVRCKKCTEIVDQYICK

Further lines, the molecule ahead of its results:

Molecule: fMDGCEL [reference compound]
stimulation of hFz1 activity towards Go (hFz1; E. coli produced hFz1 membranes, Wnt5a mimetic peptide): can be stimulated

B2: Wnt7a: Wnt ligand (secreted Wnt family protein), frizzled receptor agonist (protein, UniProt O00755 32-349, looked up)
Protein Wnt-7a: LGASIICNKIPGLAPRQRAICQSRPDAIIVIGEGSQMGLDECQFQFRNGRWNCSALGERTVFGKELKVGSREAAFTYAIIAAGVAHAITAACTQGNLSDCGCDKEKQGQYHRDEGWKWGGCSADIRYGIGFAKVFVDAREIKQNARTLMNLHNNEAGRKILEENMKLECKCHGVSGSCTTKTCWTTLPQFRELGYVLKDKYNEAVHVEPVRASRNKRPTFLKIKKPLSYRKPMDTDLVYIEKSPNYCEEDPVTGSVGTQGRACNKTAPQASGCDLMCCGRGYNTHQYARVWQCNCKFHWCCYVKCNTCSERTEMYTCK
Go activation by hFz6 upon addition of ligand (hFz6): activated Go
activation of the trimeric Go protein (GTP incorporation into Go) (hFz1): concentration-dependent activation
relative stimulation among the Wnt ligands tested (hFz1): more modest stimulation

B3: Wnt5a: Wnt ligand (secreted Wnt family protein), frizzled receptor agonist (protein, UniProt P41221 62-380, looked up)
Protein Wnt-5a: IIGAQPLCSQLAGLSQGQKKLCHLYQDHMQYIGEGAKTGIKECQYQFRHRRWNCSTVDNTSVFGRVMQIGSRETAFTYAVSAAGVVNAMSRACREGELSTCGCSRAARPKDLPRDWLWGGCGDNIDYGYRFAKEFVDARERERIHAKGSYESARILMNLHNNEAGRRTVYNLADVACKCHGVSGSCSLKTCWLQLADFRKVGDALKEKYDSAAAMRLNSRGKLVQVNSRFNSPTTQDLVYIDPSPDYCVRNESTGSLGTQGRLCNKTSEGMDGCELMCCGRGYDQFKTVQTERCHCKFHWCCYVKCKKCTEIVDQFVCK
Go activation by hFz7 upon addition of ligand (hFz7): mostly stimulated
activation of the trimeric Go protein (GTP incorporation into Go) (hFz1): concentration-dependent activation
relative stimulation among the Wnt ligands tested (hFz1): most active
